In publication PMC3486911 (PLoS Pathogens, 2012):
pKd: −log10 of the molar value. Values joined by “and” are separate entries in the source; they are usually repeats but may differ in a detail not shown here. Equal values may be shown once. Read-outs that look alike come from different tables or passages of the source.

How the values were obtained:
Experiment in all cases: SPR
[1] = molecular target: V1 fHbp (V1.p1), wild type (Neisseria meningitidis) (UniProt Q9JXV4)
[2] = molecular target: V1 fHbp Arg195-Ala (Neisseria meningitidis)
[3] = molecular target: V1 fHbp Gln193-Ala (Neisseria meningitidis)
[4] = molecular target: V1 fHbp His203-Ala (Neisseria meningitidis)
[5] = molecular target: V1 fHbp Ile196-Ala (Neisseria meningitidis)
[6] = molecular target: V1 fHbp Lys191-Ala (Neisseria meningitidis)
[7] = molecular target: V1 fHbp Phe194-Ala (Neisseria meningitidis)
[8] = molecular target: V2 fHbp Val311 mutant (to Ala) (Neisseria meningitidis)
[9] = molecular target: V3 fHbp (V3.p28), wild type (Neisseria meningitidis) (UniProt E6MV22)
[10] = molecular target: V1 fHbp (V1.p1), wild type (Neisseria meningitidis) (UniProt Q9JXV4); remark: listed apart in the source
[11] = molecular target: V3 fHbp (V3.p28), wild type (Neisseria meningitidis) (UniProt E6MV22); remark: listed apart in the source
[12] = molecular target: V3 fHbp Ala99Glu (Neisseria meningitidis)
[13] = molecular target: V3 fHbp Asn123 mutant (to Ala) (Neisseria meningitidis)
[14] = molecular target: V3 fHbp Asn48 mutant (to Ala) (Neisseria meningitidis)
[15] = molecular target: V3 fHbp Asp126 mutant (to Ala) (Neisseria meningitidis)
[16] = molecular target: V3 fHbp Asp43 mutant (to Ala) (Neisseria meningitidis)
[17] = molecular target: V3 fHbp Asp92 mutant (to Ala) (Neisseria meningitidis)
[18] = molecular target: V3 fHbp Gln134 mutant (to Ala) (Neisseria meningitidis) (UniProt E6MV22)
[19] = molecular target: V3 fHbp Gln87 mutant (to Ala) (Neisseria meningitidis) (UniProt E6MV22)
[20] = molecular target: V3 fHbp Gly49 mutant (to Ala) (Neisseria meningitidis) (UniProt E6MV22)
[21] = molecular target: V3 fHbp His190 mutant (to Ala) (Neisseria meningitidis)
[22] = molecular target: V3 fHbp Ile122 mutant (to Ala) (Neisseria meningitidis)
[23] = molecular target: V3 fHbp Ile89 mutant (to Ala) (Neisseria meningitidis) (UniProt E6MV22)
[24] = molecular target: V3 fHbp Ile96 mutant (to Ala) (Neisseria meningitidis)
[25] = molecular target: V3 fHbp Leu117 mutant (to Ala) (Neisseria meningitidis)
[26] = molecular target: V3 fHbp Leu98 mutant (to Ala) (Neisseria meningitidis)
[27] = molecular target: V3 fHbp Lys127 mutant (to Ala) (Neisseria meningitidis)
[28] = molecular target: V3 fHbp Lys32 mutant (to Ala) (Neisseria meningitidis)
[29] = molecular target: V3 fHbp Pro125 mutant (to Ala) (Neisseria meningitidis)
[30] = molecular target: V3 fHbp Pro46 mutant (to Ala) (Neisseria meningitidis)
[31] = molecular target: V3 fHbp Ser44 mutant (to Ala) (Neisseria meningitidis)
[32] = molecular target: V3 fHbp Thr128 mutant (to Ala) (Neisseria meningitidis)
[33] = molecular target: V3 fHbp Val114 mutant (to Ala) (Neisseria meningitidis)
[34] = molecular target: V3 fHbp Val91 mutant (to Ala) (Neisseria meningitidis)
[35] = molecular target: V1 fHbp (V1.p1), wild type (Neisseria meningitidis) (UniProt Q9JXV4); remark: listed apart in the source
[36] = molecular target: V1 fHbp Arg195-Ala (Neisseria meningitidis); remark: listed apart in the source
[37] = molecular target: V1 fHbp Gln193-Ala (Neisseria meningitidis); remark: listed apart in the source
[38] = molecular target: V1 fHbp His203-Ala (Neisseria meningitidis); remark: listed apart in the source
[39] = molecular target: V1 fHbp Ile196-Ala (Neisseria meningitidis); remark: listed apart in the source
[40] = molecular target: V1 fHbp Lys191-Ala (Neisseria meningitidis); remark: listed apart in the source
[41] = molecular target: V1 fHbp Phe194-Ala (Neisseria meningitidis); remark: listed apart in the source
[42] = molecular target: V2 fHbp Gln191 mutant (to Ala) (Neisseria meningitidis)
[43] = molecular target: V2 fHbp Glu262 mutant (to Ala) (Neisseria meningitidis)
[44] = molecular target: V2 fHbp His203 mutant (to Ala) (Neisseria meningitidis)
[45] = molecular target: V2 fHbp Leu199 mutant (to Ala) (Neisseria meningitidis)
[46] = molecular target: V2 fHbp Lys264 mutant (to Ala) (Neisseria meningitidis)
[47] = molecular target: V2 fHbp Lys268 mutant (to Ala) (Neisseria meningitidis)
[48] = molecular target: V2 fHbp Ser302 mutant (to Ala) (Neisseria meningitidis)
[49] = molecular target: V2 fHbp Thr304 mutant (to Ala) (Neisseria meningitidis)
[50] = molecular target: V2 fHbp Val196 mutant (to Ala) (Neisseria meningitidis)
[51] = molecular target: V2 fHbp Val311 mutant (to Ala) (Neisseria meningitidis); remark: listed apart in the source
[52] = molecular target: V3 fHbp (V3.p28), wild type (Neisseria meningitidis) (UniProt E6MV22); remark: listed apart in the source

human factor H CCP 6 and 7 (fH67) (domain or fragment)
pKd [1]: 8.55 and 8.63 and 8.61 | pKd [2]: 6.66 | pKd [3]: 8.32 | pKd [4]: 8.77 | pKd [5]: 8.82 | pKd [6]: 8.38 | pKd [7]: 8.21 | pKd [8]: 8.13 | pKd [9]: 8.53 | pKd [10]: 8.70 and 8.68 | pKd [11]: 8.62 and 8.64 | pKd [12]: 7.10 and 7.15 | pKd [13]: 8.13 and 8.07 | pKd [14]: 8.44 and 8.43 | pKd [15]: 8.20 and 8.19 | pKd [16]: 8.52 and 8.47 | pKd [17]: 8.33 and 8.32 | pKd [18]: 8.59 and 8.57 | pKd [19]: 9.15 and 9.14 | pKd [20]: 8.52 | pKd [21]: 8.47 and 8.48 | pKd [22]: 8.03 and 7.96 | pKd [23]: 7.42 | pKd [24]: 7.85 and 7.82 | pKd [25]: 8.28 | pKd [26]: 7.07 and 7.06 | pKd [27]: 8.54 and 8.52 | pKd [28]: 8.52 | pKd [29]: 8.49 and 8.47 | pKd [30]: 10.59 and 10.52 | pKd [31]: 8.00 and 8.01 | pKd [32]: 8.40 and 8.36 | pKd [33]: 8.49 and 8.48 | pKd [34]: 8.25 and 8.19 | pKd [35]: 8.57 and 8.51 and 8.59 | pKd [36]: 6.44 and 7.12 | pKd [37]: 8.28 and 8.38 | pKd [38]: 8.85 and 8.70 | pKd [39]: 8.85 and 8.80 | pKd [40]: 8.35 and 8.42 | pKd [41]: 8.22 and 8.20 | pKd [42]: 8.57 and 8.60 | pKd [43]: 8.25 and 8.30 | pKd [44]: 8.60 and 8.55 | pKd [45]: 7.80 and 7.82 | pKd [46]: 8.02 and 8.07 | pKd [47]: 8.64 and 8.66 | pKd [48]: 8.43 and 8.36 | pKd [49]: 8.10 and 8.07 | pKd [50]: 7.49 and 7.85 | pKd [51]: 8.15 and 8.10 | pKd [52]: 8.55 and 8.52 and 8.54
